Kd data for one substance are collected here from publication PMC5290946.

This assay addresses His-MxiC(C184A/C233S/A247C/S290C), labelled with MTSL (Shigella flexneri) (UniProt Q04640). Nature of the assay: continuous wave EPR; X-band, room temperature; MTSL-labelled His-MxiC(Cys) at ~75 μM with a 10-fold (~750 μM) or n-fold excess of the unlabelled partner, in 20 mM Tris-HCl pH 7.5, 100 mM NaCl; binding read from the change of the spin labels' spectrum; KD estimated from the molar ratio that gives half of the maximal change.

As to “His6-IpaD(15-332) C322S (from UniProt P18013 15-332) (domain or fragment)”, the Kd was 730 µM.
